Results taken from patent CN111072775A (OLYMVAX BIOPHARMACEUTICALS INC; UNIV ARMY MEDICAL, dated 2020).

T1: MntC蛋白 (锰离子转运蛋白C亚单位, 重组MntC蛋白) (金黄色葡萄球菌 (Staphylococcus aureus))
T1 construct: Recombinant MntC used as immunogen and as ELISA coating antigen; also called MntC重组蛋白; MntC蛋白标准品
T1 chain: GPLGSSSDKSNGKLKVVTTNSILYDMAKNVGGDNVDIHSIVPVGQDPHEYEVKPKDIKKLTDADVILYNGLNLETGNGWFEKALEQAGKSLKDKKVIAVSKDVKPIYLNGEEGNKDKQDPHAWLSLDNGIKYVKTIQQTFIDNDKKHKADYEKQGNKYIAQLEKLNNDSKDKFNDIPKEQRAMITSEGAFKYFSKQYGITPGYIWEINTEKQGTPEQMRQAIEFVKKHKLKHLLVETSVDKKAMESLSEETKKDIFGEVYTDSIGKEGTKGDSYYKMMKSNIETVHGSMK

B1: HRP标记的抗体3F6 (antibody, V domains shown)
VH: VQLQQSGPSLVKPSQTLSLTCSVTGDSITNGYWNWIRKFPGNKLEYMGYISYSGTTYYNPSLKSRISITRDTSKNQYYLQLNSVTTEDTATYYCSRIRPYRHLGFDYWGQGTTVTVSS
VL: DIVMTQTPASLAVSLGQRATISCKASQSVDYGGDSYMNWYQQKPGQPPKLLIYAASNLESGIPARFSGSGSGTDFTLNIHPVEEEDGATYYCQQSNEDPWTFGGGTKLEIK
modifications: HRP label by the sodium periodate oxidation method; chain and site not stated
notes: also called HRP标记抗体 (3F6)
B2: HRP标记的抗体3C10 (antibody, V domains shown)
VH: VKLQESGPSLVKPSQTLSLTCSVTGDSITNGYWNWIRKFPGNKLEYMGYISYSGTTYYNPSLKSRISITRDTSKNQYYLQLNSVTTEDTATYYCSRIRPYRHLGFDYWGQGTTVTVSS
VL: DIVMTQSTASLAVSLGQRATISCKASQSVDYGGDSYMNWYQQKPGQPPKLLIYAASNLESGIPARFSGSGSGTDFTLNIHPVEEEDGATYYCQQSNEDPWTFGGGTKLEIK
modifications: HRP label by the sodium periodate oxidation method; chain and site not stated
notes: also called HRP标记抗体 (3C10); 酶结合物(抗体3C10)

Target: T1, MntC蛋白 (锰离子转运蛋白C亚单位, 重组MntC蛋白)
Assay: ELISA on MntC with HRP-labelled antibody

Row | Binder | binding result
1 | B1 | binds
2 | B2 | binds
